Reference: US10981980B2, “Polypeptide targeting aptamers for characterization, capture, and clinical management of circulating tumor cells” (Counterpoint Biomedica LLC, priority 2016, dated 2021)
*: point of attachment. FITC = O=C1OC2(c3ccc(O)cc3Oc3cc(O)ccc32)c2ccc(NC(=S)*)cc21; Ahx = NCCCCCC(=O)O

Target: purified recombinant His-tagged VIM (Homo sapiens, UniProt P08670)
Assay: IMAC pull-down / comparative evaluation of vimentin-binding aptamers (net fluorescent signal with and without r-vimentin)
Conditions: His-Tag beads, FIG. 5
Text: FIG. 4 is a schematic and photograph of a IMAC Pull-down assay. The numbers 1, 2, 4, 7, 9, 11, 14, 16, 17, and 18 under the tubes correspond to aptamers consisting of SEQ ID NOs: 1, 2, 4, 7, 9, 11, 14, 16, 17, and 18, respectively. IMAC=[…]/Ni- or Metal-chelate chromatography.
FIG. 5 is a graph showing a comparative evaluation of vimentin-binding aptamers. The numbers 1, 2, 4, 7, 9, 11, 14, 16, 17, 18, 22, and 23 under the graph correspond to aptamers consisting of SEQ ID NOs: 1, 2, 4, 7, 9, 11, 14, 16, 17, 18, 49, and 51, respectively.
Aptamers containing VIM binding domains were allowed to associate with purified recombinant His-tagged VIM, followed by the addition of His-Tag beads, which were then used to concentrate the His-VIM and associated aptamers (see FIG. 4). Numbers below the tubes in FIG. 4 reading from left to right, top to bottom, correspond to aptamers that include SEQ ID NOs: 1, 2, 4, 7, 9, 11, 14, 16, 17, and 18, respectively.
The comparative binding efficiency of the aptamers was evaluated by quantifying the net fluorescent signal in the presence and absence of vimentin (e.g., r-vimentin)(see FIG. 5). Numbers 1, 2, 4, 7, 9, 11, 14, 16, 17, 18, 22, and 23 below the graph correspond to aptamers that include SEQ ID NOs: 1, […], 4, 7, […], 11, 14, 16, 17, 18, 49, and 51, respectively. VIM-binding sequences from Phage Display studies were positive.

purified recombinant His-tagged VIM, sequence (P08670 whole entry): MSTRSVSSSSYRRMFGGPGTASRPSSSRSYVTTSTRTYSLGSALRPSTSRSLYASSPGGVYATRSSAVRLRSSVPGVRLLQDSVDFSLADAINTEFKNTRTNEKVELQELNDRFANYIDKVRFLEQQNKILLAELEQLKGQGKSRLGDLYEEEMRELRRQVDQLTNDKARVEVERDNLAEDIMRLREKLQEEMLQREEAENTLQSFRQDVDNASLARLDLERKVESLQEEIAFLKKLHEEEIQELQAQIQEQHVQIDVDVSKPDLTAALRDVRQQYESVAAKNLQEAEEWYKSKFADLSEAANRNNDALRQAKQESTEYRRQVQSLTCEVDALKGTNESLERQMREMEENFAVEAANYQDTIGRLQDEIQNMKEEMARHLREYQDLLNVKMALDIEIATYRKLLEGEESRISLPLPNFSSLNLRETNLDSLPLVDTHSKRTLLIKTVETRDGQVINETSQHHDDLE

Substance	comparative binding efficiency (net fluorescent signal in the presence and absence of vimentin)
(FITC-Ahx)AGKKPRVTVTNVFLYNRPLNSTE-free acid ({FITC-Ahx}-AGKKPRVTVTNVFLYNRPLNSTE-OH; SMILES CC(C)C[C@H](NC(=O)[C@H](Cc1ccccc1)NC(=O)[C@@H](NC(=O)[C@H](CC(N)=O)NC(=O)[C@@H](NC(=O)[C@@H](NC(=O)[C@@H](NC(=O)[C@@H](NC(=O)[C@H](CCCNC(=N)N)NC(=O)[C@@H]1CCCN1C(=O)[C@H](CCCCN)NC(=O)[C@H](CCCCN)NC(=O)CNC(=O)[C@H](C)NC(=O)CCCCCNC(=S)Nc1ccc2c(c1)C(=O)OC21c2ccc(O)cc2Oc2cc(O)ccc21)C(C)C)[C@@H](C)O)C(C)C)[C@@H](C)O)C(C)C)C(=O)N[C@@H](Cc1ccc(O)cc1)C(=O)N[C@@H](CC(N)=O)C(=O)N[C@@H](CCCNC(=N)N)C(=O)N1CCC[C@H]1C(=O)N[C@@H](CC(C)C)C(=O)N[C@@H](CC(N)=O)C(=O)N[C@@H](CO)C(=O)N[C@H](C(=O)N[C@@H](CCC(=O)O)C(=O)O)[C@@H](C)O) [Aptamer #22]	Strong binding
(FITC-Ahx)AGKKPSVTVTNVFLYNRPLNSTE-free acid ({FITC-Ahx}-AGKKPSVTVTNVFLYNRPLNSTE-OH; SMILES CC(C)C[C@H](NC(=O)[C@H](Cc1ccccc1)NC(=O)[C@@H](NC(=O)[C@H](CC(N)=O)NC(=O)[C@@H](NC(=O)[C@@H](NC(=O)[C@@H](NC(=O)[C@@H](NC(=O)[C@H](CO)NC(=O)[C@@H]1CCCN1C(=O)[C@H](CCCCN)NC(=O)[C@H](CCCCN)NC(=O)CNC(=O)[C@H](C)NC(=O)CCCCCNC(=S)Nc1ccc2c(c1)C(=O)OC21c2ccc(O)cc2Oc2cc(O)ccc21)C(C)C)[C@@H](C)O)C(C)C)[C@@H](C)O)C(C)C)C(=O)N[C@@H](Cc1ccc(O)cc1)C(=O)N[C@@H](CC(N)=O)C(=O)N[C@@H](CCCNC(=N)N)C(=O)N1CCC[C@H]1C(=O)N[C@@H](CC(C)C)C(=O)N[C@@H](CC(N)=O)C(=O)N[C@@H](CO)C(=O)N[C@H](C(=O)N[C@@H](CCC(=O)O)C(=O)O)[C@@H](C)O) [Aptamer #23]	Strong binding
acetyl-TRKRIRIQRGPGRAFVTIGGK(FITC)-amide (Ac-TRKRIRIQRGPGRAFVTIGGK(FITC)-NH2; SMILES CC[C@H](C)[C@H](NC(=O)[C@H](CCCNC(=N)N)NC(=O)[C@@H](NC(=O)[C@H](CCCNC(=N)N)NC(=O)[C@H](CCCCN)NC(=O)[C@H](CCCNC(=N)N)NC(=O)[C@@H](NC(C)=O)[C@@H](C)O)[C@@H](C)CC)C(=O)N[C@@H](CCC(N)=O)C(=O)N[C@@H](CCCNC(=N)N)C(=O)NCC(=O)N1CCC[C@H]1C(=O)NCC(=O)N[C@@H](CCCNC(=N)N)C(=O)N[C@@H](C)C(=O)N[C@@H](Cc1ccccc1)C(=O)N[C@H](C(=O)N[C@H](C(=O)N[C@H](C(=O)NCC(=O)NCC(=O)N[C@@H](CCCCNC(=S)Nc1ccc2c(c1)C(=O)OC21c2ccc(O)cc2Oc2cc(O)ccc21)C(N)=O)[C@@H](C)CC)[C@@H](C)O)C(C)C) [Aptamer #17]	Strong binding

Tested on: collagen-agarose beads
Assay: Collagen agarose binding assay
Conditions: loaded in PBS pH 7.4, stringent washing, 10 column volumes of 1M NaCl in PBST, FIG. 3
Text: FIG. 3 is a schematic and a photograph of a collagen agarose binding assay. Apt #1 is an aptamer consisting of SEQ ID NO: 1; Apt #7 is an aptamer consisting of SEQ ID NO: 7; Apt #19 is an aptamer consisting of SEQ ID NO: 19; and Apt #20 is an aptamer consisting of SEQ ID NO: 20. CBD=collagen-binding domain; CBD1=bovine vWF sequence comprising SEQ ID NO: 22; CBD2=human vWF sequence comprising SEQ ID NO: 23. […] Aptamers and reporters were mixed and loaded under mild binding conditions (PBS, pH 7.4), followed by washing with increasing concentrations of salt and/or detergent (PBST, using Tween 20). Stringent washing generally includes 10 column volumes of 1M NaCl in PBST, pH 7.4).

Substance	binding to collagen-agarose beads
acetyl-VNTANSTGGSGARRGVRVAWREPGRMELNMPHGGSGK(FITC)-amide (Ac-VNTANSTGGSGARRGVRVAWREPGRMELNMPHGGSGK(FITC)-NH2; SMILES CSCC[C@H](NC(=O)[C@H](CCCNC(=N)N)NC(=O)CNC(=O)[C@@H]1CCCN1C(=O)[C@H](CCC(=O)O)NC(=O)[C@H](CCCNC(=N)N)NC(=O)[C@H](Cc1c[nH]c2ccccc12)NC(=O)[C@H](C)NC(=O)[C@@H](NC(=O)[C@H](CCCNC(=N)N)NC(=O)[C@@H](NC(=O)CNC(=O)[C@H](CCCNC(=N)N)NC(=O)[C@H](CCCNC(=N)N)NC(=O)[C@H](C)NC(=O)CNC(=O)[C@H](CO)NC(=O)CNC(=O)CNC(=O)[C@@H](NC(=O)[C@H](CO)NC(=O)[C@H](CC(N)=O)NC(=O)[C@H](C)NC(=O)[C@@H](NC(=O)[C@H](CC(N)=O)NC(=O)[C@@H](NC(C)=O)C(C)C)[C@@H](C)O)[C@@H](C)O)C(C)C)C(C)C)C(=O)N[C@@H](CCC(=O)O)C(=O)N[C@@H](CC(C)C)C(=O)N[C@@H](CC(N)=O)C(=O)N[C@@H](CCSC)C(=O)N1CCC[C@H]1C(=O)N[C@@H](Cc1c[nH]cn1)C(=O)NCC(=O)NCC(=O)N[C@@H](CO)C(=O)NCC(=O)N[C@@H](CCCCNC(=S)Nc1ccc2c(c1)C(=O)OC21c2ccc(O)cc2Oc2cc(O)ccc21)C(N)=O) [Aptamer #7]	bind tightly
acetyl-RRGVRVAWREPGRMELNMPHGGSGK(FITC)-amide (Ac-RRGVRVAWREPGRMELNMPHGGSGK(FITC)-NH2; SMILES CSCC[C@H](NC(=O)[C@H](CCCNC(=N)N)NC(=O)CNC(=O)[C@@H]1CCCN1C(=O)[C@H](CCC(=O)O)NC(=O)[C@H](CCCNC(=N)N)NC(=O)[C@H](Cc1c[nH]c2ccccc12)NC(=O)[C@H](C)NC(=O)[C@@H](NC(=O)[C@H](CCCNC(=N)N)NC(=O)[C@@H](NC(=O)CNC(=O)[C@H](CCCNC(=N)N)NC(=O)[C@H](CCCNC(=N)N)NC(C)=O)C(C)C)C(C)C)C(=O)N[C@@H](CCC(=O)O)C(=O)N[C@@H](CC(C)C)C(=O)N[C@@H](CC(N)=O)C(=O)N[C@@H](CCSC)C(=O)N1CCC[C@H]1C(=O)N[C@@H](Cc1c[nH]cn1)C(=O)NCC(=O)NCC(=O)N[C@@H](CO)C(=O)NCC(=O)N[C@@H](CCCCNC(=S)Nc1ccc2c(c1)C(=O)OC21c2ccc(O)cc2Oc2cc(O)ccc21)C(N)=O) [Aptamer #20]	bind tightly
acetyl-STRSVSSSSYRRMFGGPGTASK(FITC)-amide (Ac-STRSVSSSSYRRMFGGPGTASK(FITC)-NH2; SMILES CSCC[C@H](NC(=O)[C@H](CCCNC(=N)N)NC(=O)[C@H](CCCNC(=N)N)NC(=O)[C@H](Cc1ccc(O)cc1)NC(=O)[C@H](CO)NC(=O)[C@H](CO)NC(=O)[C@H](CO)NC(=O)[C@H](CO)NC(=O)[C@@H](NC(=O)[C@H](CO)NC(=O)[C@H](CCCNC(=N)N)NC(=O)[C@@H](NC(=O)[C@H](CO)NC(C)=O)[C@@H](C)O)C(C)C)C(=O)N[C@@H](Cc1ccccc1)C(=O)NCC(=O)NCC(=O)N1CCC[C@H]1C(=O)NCC(=O)N[C@H](C(=O)N[C@@H](C)C(=O)N[C@@H](CO)C(=O)N[C@@H](CCCCNC(=S)Nc1ccc2c(c1)C(=O)OC21c2ccc(O)cc2Oc2cc(O)ccc21)C(N)=O)[C@@H](C)O) [Aptamer #9]	bind tightly
